Reference: patent US9757468B2, “Intranasal administration of guanidinylated aminoglycosides” (The Regents of the University of California, priority 2013, dated 2017)
Read-outs that look alike come from different tables or passages of the source.

Key:
[1] = tested on: sulfamidase deficient mice (Sgsh−/−); test: Brain enzyme activity one hour after intranasal administration of sulfamidase forms; details: 2 mg/kg, FIG. 4
[2] = tested on: sulfamidase deficient mice (Sgsh−/−); details: mouse, in vivo, 2 mg/kg
[3] = tested on: α-iduronidase-deficient mice (Idua−/−; Homozygote); test: Brain enzyme activity one hour after intranasal administration of forms of iduronidase; details: 2 mg/kg, FIG. 1
brain = details: in vivo; cited from earlier work
[4] = tested on: mouse model of mucopolysaccharidosis (MPS) type I; test: Reduction of brain glycosaminoglycans by intranasal treatment (carbazole assay); assay type: in vivo; details: intranasal 1 mg/kg every other day for two weeks, MPS I mice, *p<0.05, FIG. 3
Protocol: A mouse model of mucopolysaccharidosis (MPS) type I, which is null for the lysosomal enzyme, α-L-iduronidase (IDUA), was used to measure the amount of glycosaminoglycans in the brain following intranasal administration of 1 mg/kg IDUA or GNeo-AP-IDUA every other day for two weeks. Quantification of glycoaminoglycan was performed using the carbazole assay. […] Data are represented as mean±SD (n=5 or 6). One-way analysis of variance (ANOVA) with Tukey's post-hoc analysis for comparison was applied for data analysis (*p<0.05).

[5] = tested on: α-iduronidase-deficient mice (Idua−/−; Homozygote); details: mouse, in vivo
Protocol: One hour following administration the mice were sacrificed and their brains were removed and dissected to isolate tissue from the olfactory bulb, the cerebral cortex, and “other parts of the brain.” The total amount of tissue protein recovered from these various portions was ˜1 mg, ˜25 mg, and ˜50 mg, respectively. The various tissues were then assayed for IDUA activity, which was expressed relative to the wet weight of each part of brain.

[6] = tested on: α-iduronidase-deficient mice (Idua−/−; Homozygote); details: mouse, in vivo, 2 mg/kg

B1: GNeo-SGSH: Sulfamidase (SGSH) conjugated to guanidinoneomycin (conjugate, UniProt P51688 21-502, looked up)
N-sulphoglucosamine …: RPRNALLLLADDGGFESGAYNNSAIATPHLDALARRSLLFRNAFTSVSSCSPSRASLLTGLPQHQNGMYGLHQDVHHFNSFDKVRSLPLLLSQAGVRTGIIGKKHVGPETVYPFDFAYTEENGSVLQVGRNITRIKLLVRKFLQTQDDRPFFLYVAFHDPHRCGHSQPQYGTFCEKFGNGESGMGRIPDWTPQAYDPLDVLVPYFVPNTPAARADLAAQYTTVGRMDQGVGLVLQELRDAGVLNDTLVIFTSDNGIPFPSGRTNLYWPGTAEPLLVSSPEHPKRWGQVSEAYVSLLDLTPTILDWFSIPYPSYAIFGSKTIHLTGRSLLPALEAEPLWATVFGSQSHHEVTMSYPMRSVQHRHFRLVHNLNFKMPFPIDQDFYVSPTFQDLLNRTTAGQPTGWYKDLRHYYYRARWELYDRSRDPHETQNLATDPRFAQLLEMLRDQLAKWQWETHDPWVCAPDGVLEEKLSPQCQPLHNEL
modifications: guanidinoneomycin conjugate
enzyme activity in brain extracts (uptake into the brain) ([1]; one hour after administration): rapid uptake into the brain
level of activity in the olfactory bulb of brain versus wildtype animals ([1]; one hour): exceeded that found in wildtype animals

B2: SGSH: Sulfamidase with mannose-6-phosphate terminated glycans, not conjugated to guanidinoneomycin (protein, UniProt P51688 21-502, looked up)
N-sulphoglucosamine …: RPRNALLLLADDGGFESGAYNNSAIATPHLDALARRSLLFRNAFTSVSSCSPSRASLLTGLPQHQNGMYGLHQDVHHFNSFDKVRSLPLLLSQAGVRTGIIGKKHVGPETVYPFDFAYTEENGSVLQVGRNITRIKLLVRKFLQTQDDRPFFLYVAFHDPHRCGHSQPQYGTFCEKFGNGESGMGRIPDWTPQAYDPLDVLVPYFVPNTPAARADLAAQYTTVGRMDQGVGLVLQELRDAGVLNDTLVIFTSDNGIPFPSGRTNLYWPGTAEPLLVSSPEHPKRWGQVSEAYVSLLDLTPTILDWFSIPYPSYAIFGSKTIHLTGRSLLPALEAEPLWATVFGSQSHHEVTMSYPMRSVQHRHFRLVHNLNFKMPFPIDQDFYVSPTFQDLLNRTTAGQPTGWYKDLRHYYYRARWELYDRSRDPHETQNLATDPRFAQLLEMLRDQLAKWQWETHDPWVCAPDGVLEEKLSPQCQPLHNEL
enzyme activity in brain extracts (uptake into the brain) [2]: not taken up efficiently

B3: IDUA: recombinant enzyme iduronidase (Aldurazyme), not conjugated to guanidinoneomycin (protein, UniProt P35475 28-653, looked up)
Alpha-L-iduronidase: APHLVHVDAARALWPLRRFWRSTGFCPPLPHSQADQYVLSWDQQLNLAYVGAVPHRGIKQVRTHWLLELVTTRGSTGRGLSYNFTHLDGYLDLLRENQLLPGFELMGSASGHFTDFEDKQQVFEWKDLVSSLARRYIGRYGLAHVSKWNFETWNEPDHHDFDNVSMTMQGFLNYYDACSEGLRAASPALRLGGPGDSFHTPPRSPLSWGLLRHCHDGTNFFTGEAGVRLDYISLHRKGARSSISILEQEKVVAQQIRQLFPKFADTPIYNDEADPLVGWSLPQPWRADVTYAAMVVKVIAQHQNLLLANTTSAFPYALLSNDNAFLSYHPHPFAQRTLTARFQVNNTRPPHVQLLRKPVLTAMGLLALLDEEQLWAEVSQAGTVLDSNHTVGVLASAHRPQGPADAWRAAVLIYASDDTRAHPNRSVAVTLRLRGVPPGPGLVYVTRYLDNGLCSPDGEWRRLGRPVFPTAEQFRRMRAAEDPVAAAPRPLPAGGRLTLRPALRLPSLLLVHVCARPEKPPGQVTRLRALPLTQGQLVLVWSDEHVGSKCLWTYEIQFSQDGKAYTPVSRKPSTFNLFVFSPDTGAVSGSYRVRALDYWARPGPFSDPVPYLEVPVPRGPPSPGNP
enzyme activity in brain extracts (uptake into the brain) [3]: not taken up efficiently
levels of enzyme in the brain after intranasal delivery (brain): extremely low

B4: AP-IDUA: iduronidase modified with alkaline phosphatase only, not conjugated to GNeo (protein, UniProt P35475 28-653, looked up)
Alpha-L-iduronidase: APHLVHVDAARALWPLRRFWRSTGFCPPLPHSQADQYVLSWDQQLNLAYVGAVPHRGIKQVRTHWLLELVTTRGSTGRGLSYNFTHLDGYLDLLRENQLLPGFELMGSASGHFTDFEDKQQVFEWKDLVSSLARRYIGRYGLAHVSKWNFETWNEPDHHDFDNVSMTMQGFLNYYDACSEGLRAASPALRLGGPGDSFHTPPRSPLSWGLLRHCHDGTNFFTGEAGVRLDYISLHRKGARSSISILEQEKVVAQQIRQLFPKFADTPIYNDEADPLVGWSLPQPWRADVTYAAMVVKVIAQHQNLLLANTTSAFPYALLSNDNAFLSYHPHPFAQRTLTARFQVNNTRPPHVQLLRKPVLTAMGLLALLDEEQLWAEVSQAGTVLDSNHTVGVLASAHRPQGPADAWRAAVLIYASDDTRAHPNRSVAVTLRLRGVPPGPGLVYVTRYLDNGLCSPDGEWRRLGRPVFPTAEQFRRMRAAEDPVAAAPRPLPAGGRLTLRPALRLPSLLLVHVCARPEKPPGQVTRLRALPLTQGQLVLVWSDEHVGSKCLWTYEIQFSQDGKAYTPVSRKPSTFNLFVFSPDTGAVSGSYRVRALDYWARPGPFSDPVPYLEVPVPRGPPSPGNP
modifications: alkaline phosphatase modified
enzyme activity in brain extracts (uptake into the brain) [3]: does not appear to facilitate efficient transport into the brain

B5: GNeo-AP-IDUA: iduronidase (Aldurazyme) treated with alkaline phosphatase to remove mannose-6-phosphate groups, then conjugated to guanidinoneomycin via GNeo-NHS (conjugate, UniProt P35475 28-653, looked up)
Alpha-L-iduronidase: APHLVHVDAARALWPLRRFWRSTGFCPPLPHSQADQYVLSWDQQLNLAYVGAVPHRGIKQVRTHWLLELVTTRGSTGRGLSYNFTHLDGYLDLLRENQLLPGFELMGSASGHFTDFEDKQQVFEWKDLVSSLARRYIGRYGLAHVSKWNFETWNEPDHHDFDNVSMTMQGFLNYYDACSEGLRAASPALRLGGPGDSFHTPPRSPLSWGLLRHCHDGTNFFTGEAGVRLDYISLHRKGARSSISILEQEKVVAQQIRQLFPKFADTPIYNDEADPLVGWSLPQPWRADVTYAAMVVKVIAQHQNLLLANTTSAFPYALLSNDNAFLSYHPHPFAQRTLTARFQVNNTRPPHVQLLRKPVLTAMGLLALLDEEQLWAEVSQAGTVLDSNHTVGVLASAHRPQGPADAWRAAVLIYASDDTRAHPNRSVAVTLRLRGVPPGPGLVYVTRYLDNGLCSPDGEWRRLGRPVFPTAEQFRRMRAAEDPVAAAPRPLPAGGRLTLRPALRLPSLLLVHVCARPEKPPGQVTRLRALPLTQGQLVLVWSDEHVGSKCLWTYEIQFSQDGKAYTPVSRKPSTFNLFVFSPDTGAVSGSYRVRALDYWARPGPFSDPVPYLEVPVPRGPPSPGNP
modifications: guanidinoneomycin conjugate; alkaline phosphatase modified
total GAG level in the mouse brain compared with untreated mouse brains [4]: significantly decreased
dose at which uptake into the olfactory bulb (OB) and cerebral cortex (CC) saturated [5]: ~1 mg/kg
enzyme concentration in the OB versus the CC, based on enzyme specific activity (nmols/hr/mg of tissue protein) [5]: much greater than in the CC
share of the administered dose in Other parts of the Brain [5]: ~64%
share of the administered dose in the CC [5]: ~23%
share of the administered dose in the OB [5]: ~13%
enzyme activity in brain extracts (uptake into the brain) [6]: significantly more enzymatic activity
